Assay: soluble on expression in E. coli; label from the status in PepcDB or PDB records
With “VTGPGSPPLAWTELERLVAAGDVDTVIVAFTDMQGRLAGKRISGRHFVDDIATRGVECCSYLLAVDVDLNTVPGYAMASWDTGYGDMVMTPDLSTLRLIPWLPGTALVIADLVWADGSEVAVSPRSILRRQLDRLKARGLVADVATELEFIVFDQPYRQAWASGYRGLTPASDYNIDYAILASSRMEPLLRDIRLGMAGAGLRFEAVKGECNMGQQEIGFRYDEALVTCDNHAIYKNGAKEIADQHGKSLTFMAKYDEREGNSCHIHVSLRGTDGSAVFADSNGPHGMSSMFRSFVAGQLATLREFTLCYAPTINSYKRFADSSFAPTALAWGLDNRTCALRVVGHGQNIRVECRVPGGDVNQYLAVAALIAGGLYGIERGLQLPEPCVGNAYQGADVERLPVTLADAAVLFEDSALVREAFGEDVVAHYLNNARVELAAFNAAVTDWERIRGFERL” the “soluble on expression in E. coli” value was “not soluble”.
With “VTQPSGLKNLLRAAAGALPVVPRTDQLPNRTVTVEELPIDPANVAAYAAVTGLRYGNQVPLTYPFALTFPSVMSLVTGFDFPFAAMGAIHTENHITQYRPIAVTDAVGVRVRAENLREHRRGLLVDLVTNVSVGNDVAWHQVTTFLHQQRTSLSGEPKPPPQKKPKLPPPAAVLRITPAKIRRYAAVGGDHNPIHTNPIAAKLFGFPTVIAHGMFTAAAVLANIEARFPDAVRYSVRFAKPVLLPATAGLYVAEGDGGWDLTLRNMAKGYPHLTATVRGL” the “soluble on expression in E. coli” value was “not soluble”.
With “VTTMHDVARAAGVSQAAVSYAYNQPHKLSAARRAHIFQVAAELGYAGPNPAGRNLRTGQVGALGLMITDSLRYAFDDPATSQLLKGISEVGELAEVALTLLPCPLESTRVAEGSGVLVRGAVDGFLAYAMPDGHPGMQTAMSRRLPIVVIDGPNPGGLPRVGIRDRQAAKEIAEHVLSLGHRRVGFLVDRLVPDGKGGPVDAARTRAARDHVMKERLAGYASACRKYTVPWSSTVVVEAGGFDYELSRTAVETLLDAGPVTAVIAASDLLALAAIDVAHERGLRVPQDLSVVGFDDIPAARAAGLTTVRQPLVDKGREAAQLLLDIIGGGAGREITLPTELVVRESAGPVTADR” the “soluble on expression in E. coli” value was “not soluble”.
For “VVPGDASSVVSVNPAKPLISVCIPMYNNGATIERCLRSILEQEGVEFEIVVVDDDSSDDCAAIAATMLRPGDRLLRNEPRLGLNRNHNKCLEVARGGLIQFVHGDDRLLPGALQTLSRRFEDPSVGMAFAPRRVESDDIKWQQRYGRVHTRFRKLRDRNHGPSLVLQMVLHGAKENWIGEPTAVMFRRQLALDAGGFRTDIYQLVDVDFWLRLMLRSAVCFVPHELSVRRHTAATETTRVMATRRNVLDRQRILTWLIVDPLSPNSVRSAAALWWIPAWLAMIVEVAVLGPQRRTHLKALAPAPFREFAHARRQLPMAD”, the “soluble on expression in E. coli” value was “not soluble”.
In the case of “VVRRLTSPRLEFEAAAIYEYPEHLRSFLNDLPTRPGVYLFHGESDTMPLYIGKSVNIRSRVLSHLRTPDEAAMLRQSRRISWICTAGEIGALLLEARLIKEQQPLFNKRLRRNRQLCALQLNEKRVDVVYAKEVDFSRAPNLFGLFANRRAALQALQTIADEQKLCYGLLGLEPLSRGRACFRSALKRCAGACCGKESHEEHALRLRQSLERLRVVCWPWQGAVALKEQHPEMTQYHIIQNWLWLGAVNSLEEATTLIRTPAGFDHDGYKILCKPLLSGNYEITELDPANDQRAS”, the “soluble on expression in E. coli” value is reported as “soluble”.
With “WQGLSSKGDLPQVEITKAFFAKQADEVTLQQADVVLVLQQEDGWLYGERLRDGETGWFPEDFARFI” the “soluble on expression in E. coli” value was “soluble”.
In the case of “YAGTSDAPYTGGFMNTFNYRNWELNLNFSYNLGAHVKTDPTYYIADPDPGRNMNRDILDRWTPENKNGKFPALTSLNTNPADYYLFSTRRDLYKSLDIWVKKLSYIRLQNIRLAYHFPSEWLHKLNIGGATVGLEARNLFVFGSSYKNYMDPESMSNLYSTPVPKSVTFNLSLNF”, the “soluble on expression in E. coli” value is reported as “not soluble”.
In the case of “YKDSPKVLGQTYSSLLIDFTEGFHPNDLGIIVETIKEGGIIIAFSPPIEQWENLKSRWHEELVSEPYTVEDVTGRFFARFMRRTLQAEGIIIFD”, the “soluble on expression in E. coli” value is reported as “not soluble”.
For “YLASDGKTIILVGKNNLQNDELTFKMSKKGELWFHAKDIPGSHVLIKDNLNPSDEIKTDAAELAAYFSKARLSNLVQVDMIEAKKLNK”, the “soluble on expression in E. coli” value was “not soluble”.
In the case of “YRQQFDFSCGSAALASLLTFHYDDSVDEQSVFVDMFQHGDQEKIRREGFSMLDMKRYLERRGYGSDGFKINLDQLYSTGSPAITIINHNGYMHFVIIKGVDEDRVLVGDPAQGVKSMDRTEFERMWGNRIVFLIHNHVD”, the “soluble on expression in E. coli” value is reported as “not soluble”.
In the case of “YSGLHLCESHLCRAVTKRVRRRIREDGLVSDDATVEDPETWVIGLSGGKDSVVLTQILHDTFAEDPRIELVALSIHEGIEGYRDASLEACEELTDDLGIEHVTVSYAEEFGVQMDDVVEDDPEGMAACAYCGVFRRDLLSKYAEELDADKLLTGHNLDDEAETALMNFLEGDISQIAKHFEASLGPFDSSADAPTEQTREAQDHHIPRAKPLRDIPEKEVALYARFEDLPAHITEC”, the “soluble on expression in E. coli” value is reported as “not soluble”.

— the DeepSol protein solubility set
